Numbered stars: 1 amine (or outer) side, 2 acyl side, 3 side chain; on linkers, the order of the positions; unused ones are H or OH. Side chains are listed from the residue outwards. Ends that are not written are not given here. * marks the point of attachment. C20 diacid = O=C(O)CCCCCCCCCCCCCCCCCCC(=O)*; C18 diacid = O=C(O)CCCCCCCCCCCCCCCCC(=O)*; γGlu = O=C(O)[C@H](CCC(=O)[*:2])N[*:1]; AEEA = NCCOCCOCC(=O)O
T1: human calcitonin receptor (human, UniProt P30988 25-474)
T1 construct: whole, on cells; Assay VII: membranes on SPA beads; also called hCT-R; hCTR
T1 sequence (looked up): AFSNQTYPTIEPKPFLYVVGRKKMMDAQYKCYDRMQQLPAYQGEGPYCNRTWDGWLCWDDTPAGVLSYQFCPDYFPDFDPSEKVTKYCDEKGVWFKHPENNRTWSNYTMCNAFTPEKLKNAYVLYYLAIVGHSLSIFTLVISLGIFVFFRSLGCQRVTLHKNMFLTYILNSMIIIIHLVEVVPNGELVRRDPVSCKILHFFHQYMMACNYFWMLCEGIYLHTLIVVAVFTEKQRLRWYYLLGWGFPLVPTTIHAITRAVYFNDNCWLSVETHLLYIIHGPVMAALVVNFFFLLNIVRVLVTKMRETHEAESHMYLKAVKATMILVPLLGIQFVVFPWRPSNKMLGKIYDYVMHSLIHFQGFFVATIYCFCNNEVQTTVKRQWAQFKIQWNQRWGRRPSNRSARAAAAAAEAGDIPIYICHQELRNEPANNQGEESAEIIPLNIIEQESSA

T2: human amylin receptor (amylin 3(a) receptor: human calcitonin receptor with RAMP-3) (human, UniProt P30988 25-474; O60896 24-148, limits assumed)
T2 construct: whole, on cells; Assay V: membranes of the Amylin 3(a)/CRE-luc BHK cells on SPA beads; also called hAmylin-R
T2 sequence (looked up) 1: T1 sequence (looked up)
T2 sequence (looked up) 2: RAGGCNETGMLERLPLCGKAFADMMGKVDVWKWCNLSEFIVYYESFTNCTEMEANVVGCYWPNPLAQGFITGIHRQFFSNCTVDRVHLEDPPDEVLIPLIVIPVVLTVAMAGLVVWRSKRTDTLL

B1: [N-terminal(C18 diacid-gGlu), des1, 6T, 9V, 14T, 21E, 30T, 31G, 32T]mimylin (peptide)
peptide: {C18 diacid-γGlu}-ASELTTAVLGRLTAELHELETLPRTETGTGTP-NH2
SMILES: CC(C)C[C@H](NC(=O)[C@H](CCC(=O)O)NC(=O)[C@H](C)NC(=O)[C@@H](NC(=O)[C@H](CC(C)C)NC(=O)[C@H](CCCNC(=N)N)NC(=O)CNC(=O)[C@H](CC(C)C)NC(=O)[C@@H](NC(=O)[C@H](C)NC(=O)[C@@H](NC(=O)[C@@H](NC(=O)[C@H](CC(C)C)NC(=O)[C@H](CCC(=O)O)NC(=O)[C@H](CO)NC(=O)[C@H](C)NC(=O)CC[C@H](NC(=O)CCCCCCCCCCCCCCCCC(=O)O)C(=O)O)[C@@H](C)O)[C@@H](C)O)C(C)C)[C@@H](C)O)C(=O)N[C@@H](Cc1c[nH]cn1)C(=O)N[C@@H](CCC(=O)O)C(=O)N[C@@H](CC(C)C)C(=O)N[C@@H](CCC(=O)O)C(=O)N[C@H](C(=O)N[C@@H](CC(C)C)C(=O)N1CCC[C@H]1C(=O)N[C@@H](CCCNC(=N)N)C(=O)N[C@H](C(=O)N[C@@H](CCC(=O)O)C(=O)N[C@H](C(=O)NCC(=O)N[C@H](C(=O)NCC(=O)N[C@H](C(=O)N1CCC[C@H]1C(N)=O)[C@@H](C)O)[C@@H](C)O)[C@@H](C)O)[C@@H](C)O)[C@@H](C)O
notes: mimylin derivative; des1 = residue 1 deleted
B2: [des1, 4K(C20 diacid-gGlu), 30S, 31G]mimylin (peptide)
peptide: ASK([γGlu-C20 diacid])LSTAALGRLSAELHELATLPRTETGSGSP-NH2
modifications: N-terminus assumed
SMILES: CC(C)C[C@H](NC(=O)[C@H](C)NC(=O)[C@H](C)NC(=O)[C@@H](NC(=O)[C@H](CO)NC(=O)[C@H](CC(C)C)NC(=O)[C@H](CCCCNC(=O)CC[C@H](NC(=O)CCCCCCCCCCCCCCCCCCC(=O)O)C(=O)O)NC(=O)[C@H](CO)NC(=O)[C@H](C)N)[C@@H](C)O)C(=O)NCC(=O)N[C@@H](CCCNC(=N)N)C(=O)N[C@@H](CC(C)C)C(=O)N[C@@H](CO)C(=O)N[C@@H](C)C(=O)N[C@@H](CCC(=O)O)C(=O)N[C@@H](CC(C)C)C(=O)N[C@@H](Cc1c[nH]cn1)C(=O)N[C@@H](CCC(=O)O)C(=O)N[C@@H](CC(C)C)C(=O)N[C@@H](C)C(=O)N[C@H](C(=O)N[C@@H](CC(C)C)C(=O)N1CCC[C@H]1C(=O)N[C@@H](CCCNC(=N)N)C(=O)N[C@H](C(=O)N[C@@H](CCC(=O)O)C(=O)N[C@H](C(=O)NCC(=O)N[C@@H](CO)C(=O)NCC(=O)N[C@@H](CO)C(=O)N1CCC[C@H]1C(N)=O)[C@@H](C)O)[C@@H](C)O)[C@@H](C)O
notes: mimylin derivative; des1 = residue 1 deleted; also called Ex. #52; 52
B3: [des1, 19K(C20 diacid-gGlu), 30S, 31G]mimylin (peptide)
peptide: ASELSTAALGRLSAELHK([γGlu-C20 diacid])LATLPRTETGSGSP-NH2
modifications: N-terminus assumed
SMILES: CC(C)C[C@H](NC(=O)[C@H](C)NC(=O)[C@H](C)NC(=O)[C@@H](NC(=O)[C@H](CO)NC(=O)[C@H](CC(C)C)NC(=O)[C@H](CCC(=O)O)NC(=O)[C@H](CO)NC(=O)[C@H](C)N)[C@@H](C)O)C(=O)NCC(=O)N[C@@H](CCCNC(=N)N)C(=O)N[C@@H](CC(C)C)C(=O)N[C@@H](CO)C(=O)N[C@@H](C)C(=O)N[C@@H](CCC(=O)O)C(=O)N[C@@H](CC(C)C)C(=O)N[C@@H](Cc1c[nH]cn1)C(=O)N[C@@H](CCCCNC(=O)CC[C@H](NC(=O)CCCCCCCCCCCCCCCCCCC(=O)O)C(=O)O)C(=O)N[C@@H](CC(C)C)C(=O)N[C@@H](C)C(=O)N[C@H](C(=O)N[C@@H](CC(C)C)C(=O)N1CCC[C@H]1C(=O)N[C@@H](CCCNC(=N)N)C(=O)N[C@H](C(=O)N[C@@H](CCC(=O)O)C(=O)N[C@H](C(=O)NCC(=O)N[C@@H](CO)C(=O)NCC(=O)N[C@@H](CO)C(=O)N1CCC[C@H]1C(N)=O)[C@@H](C)O)[C@@H](C)O)[C@@H](C)O
notes: mimylin derivative; des1 = residue 1 deleted; also called Ex. #54; 54
B4: [des1, 16K(C20 diacid-gGlu), 30S, 31G]mimylin (peptide)
peptide: ASELSTAALGRLSAK([γGlu-C20 diacid])LHELATLPRTETGSGSP-NH2
modifications: N-terminus assumed
SMILES: CC(C)C[C@H](NC(=O)[C@H](C)NC(=O)[C@H](C)NC(=O)[C@@H](NC(=O)[C@H](CO)NC(=O)[C@H](CC(C)C)NC(=O)[C@H](CCC(=O)O)NC(=O)[C@H](CO)NC(=O)[C@H](C)N)[C@@H](C)O)C(=O)NCC(=O)N[C@@H](CCCNC(=N)N)C(=O)N[C@@H](CC(C)C)C(=O)N[C@@H](CO)C(=O)N[C@@H](C)C(=O)N[C@@H](CCCCNC(=O)CC[C@H](NC(=O)CCCCCCCCCCCCCCCCCCC(=O)O)C(=O)O)C(=O)N[C@@H](CC(C)C)C(=O)N[C@@H](Cc1c[nH]cn1)C(=O)N[C@@H](CCC(=O)O)C(=O)N[C@@H](CC(C)C)C(=O)N[C@@H](C)C(=O)N[C@H](C(=O)N[C@@H](CC(C)C)C(=O)N1CCC[C@H]1C(=O)N[C@@H](CCCNC(=N)N)C(=O)N[C@H](C(=O)N[C@@H](CCC(=O)O)C(=O)N[C@H](C(=O)NCC(=O)N[C@@H](CO)C(=O)NCC(=O)N[C@@H](CO)C(=O)N1CCC[C@H]1C(N)=O)[C@@H](C)O)[C@@H](C)O)[C@@H](C)O
notes: mimylin derivative; des1 = residue 1 deleted; also called Ex. #53; 53
B5: [N-terminal(C20 diacid-gGlu-2xOEG), des1, 4G, 9V, 15Q, 21Q, 23Y, 30S, 31G, 32T, 33Y]mimylin (peptide)
peptide: {C20 diacid-γGlu-AEEA-AEEA}-ASGLSTAVLGRLSQELHELQTYPRTETGSGTY-NH2
SMILES: CC(C)C[C@H](NC(=O)CNC(=O)[C@H](CO)NC(=O)[C@H](C)NC(=O)COCCOCCNC(=O)COCCOCCNC(=O)CC[C@H](NC(=O)CCCCCCCCCCCCCCCCCCC(=O)O)C(=O)O)C(=O)N[C@@H](CO)C(=O)N[C@H](C(=O)N[C@@H](C)C(=O)N[C@H](C(=O)N[C@@H](CC(C)C)C(=O)NCC(=O)N[C@@H](CCCNC(=N)N)C(=O)N[C@@H](CC(C)C)C(=O)N[C@@H](CO)C(=O)N[C@@H](CCC(N)=O)C(=O)N[C@@H](CCC(=O)O)C(=O)N[C@@H](CC(C)C)C(=O)N[C@@H](Cc1c[nH]cn1)C(=O)N[C@@H](CCC(=O)O)C(=O)N[C@@H](CC(C)C)C(=O)N[C@@H](CCC(N)=O)C(=O)N[C@H](C(=O)N[C@@H](Cc1ccc(O)cc1)C(=O)N1CCC[C@H]1C(=O)N[C@@H](CCCNC(=N)N)C(=O)N[C@H](C(=O)N[C@@H](CCC(=O)O)C(=O)N[C@H](C(=O)NCC(=O)N[C@@H](CO)C(=O)NCC(=O)N[C@H](C(=O)N[C@@H](Cc1ccc(O)cc1)C(N)=O)[C@@H](C)O)[C@@H](C)O)[C@@H](C)O)[C@@H](C)O)C(C)C)[C@@H](C)O
notes: mimylin derivative; des1 = residue 1 deleted; also called Ex. #120; 120
B6: [N-terminal(C18 diacid-gGlu), des1, 4G, 15Q, 21Q, 23Y, 30S, 31G, 32T, 33Y]mimylin (peptide)
peptide: {C18 diacid-γGlu}-ASGLSTAALGRLSQELHELQTYPRTETGSGTY-NH2
SMILES: CC(C)C[C@H](NC(=O)CNC(=O)[C@H](CO)NC(=O)[C@H](C)NC(=O)CC[C@H](NC(=O)CCCCCCCCCCCCCCCCC(=O)O)C(=O)O)C(=O)N[C@@H](CO)C(=O)N[C@H](C(=O)N[C@@H](C)C(=O)N[C@@H](C)C(=O)N[C@@H](CC(C)C)C(=O)NCC(=O)N[C@@H](CCCNC(=N)N)C(=O)N[C@@H](CC(C)C)C(=O)N[C@@H](CO)C(=O)N[C@@H](CCC(N)=O)C(=O)N[C@@H](CCC(=O)O)C(=O)N[C@@H](CC(C)C)C(=O)N[C@@H](Cc1c[nH]cn1)C(=O)N[C@@H](CCC(=O)O)C(=O)N[C@@H](CC(C)C)C(=O)N[C@@H](CCC(N)=O)C(=O)N[C@H](C(=O)N[C@@H](Cc1ccc(O)cc1)C(=O)N1CCC[C@H]1C(=O)N[C@@H](CCCNC(=N)N)C(=O)N[C@H](C(=O)N[C@@H](CCC(=O)O)C(=O)N[C@H](C(=O)NCC(=O)N[C@@H](CO)C(=O)NCC(=O)N[C@H](C(=O)N[C@@H](Cc1ccc(O)cc1)C(N)=O)[C@@H](C)O)[C@@H](C)O)[C@@H](C)O)[C@@H](C)O)[C@@H](C)O
notes: mimylin derivative; des1 = residue 1 deleted; also called Ex. #110; 110

Molecular target: T1, human calcitonin receptor
Assay: SPA competition vs 125I-calcitonin, membranes with human CTR (Assay VII)
Method: The binding assay was performed using scintillation proximity assay (SPA) beads (RPNQ0001) from PerkinElmer® and cell membranes prepared from a BHK tk'ts 13 cell line was stably transfected with the human calcitonin receptor and a CRE-responsive luciferase reporter gene. Membranes were prepared in the following way; the cells were rinsed with PBS and incubated with Versene for approximately 5 min before harvesting. The cells were flushed with PBS and the cell-suspension was centrifuged for 5 min at 1000 rpm.
(§1) EDTA (pH 7.4, buffer 2). The resulting pellet was resuspended in buffer 2 and protein concentration was tested (BCA protein Assay, Pierce). The homogenate was kept cold during the whole procedure. The membranes were kept at −80° C. until use. Assay was performed in a 384 well Optiplate (PerkinElmer®) in a total volume of 40 ul. Membranes were mixed with SPA beads. Final concentration of membranes 35 ng/μL final and Final concentration of SPA beads was 0.05 mg/well. Test-compounds were dissolved in DMSO and further diluted in assay buffer (50 mM Hepes, pH 7.4, 1 mM CaCl2, 5 mM MgCl2, 0.1% OA and 0.02% Tween20). […] Samples were analyzed on TopCounter™ (Packard). The IC₅₀ was calculated using (one site binding competition analysis) GraphPad Prism5 as a measure of receptor affinity.

IC50 [nM] | Binder
0.222 | B1
0.136 | B2
0.085 | B3
0.215 | B4
0.091 | B5
0.057 | B6

Molecular target: T2, human amylin receptor (amylin 3(a) …)
Assay: SPA competition vs 125I-rat amylin, membranes with human CTR + RAMP-3 (Assay V)
Method: as §1, with “The binding assay was performed using scintillation proximity assay (SPA) beads (RPNQ0001) from PerkinElmer and cell membranes from the Amylin 3(a)/CRE-luc cells (as described in Assay (II)) were used. Membranes were prepared in the following way; the cells were rinsed with PBS and incubated with Versene for approximately 5 min before harvesting. The cells were flushed with PBS and the cell-suspension was centrifuged for 5 min at 1000 rpm. […] The” for “EDTA (pH 7.4, buffer 2). The”, “use. The assay” for “use. Assay”, “Optiplate (PerkinElmer)” for “Optiplate (PerkinElmer®)”, “and” for “and Final concentration of”

IC50 [nM] | Binder
0.309 | B1
0.724 | B2
0.442 | B3
0.114 | B4
0.166 | B5
0.122 | B6

Reference: US20160272683A1 (Novo Nordisk, published 2016)
